This is an account of results in patent publication US20180086841A1.

The target in experiment [1] is D32A. The experiment can be described thus: flow cytometry on CHO-K1 transfectants, left sub-column. Background: In flow cytometry, cells or beads pass a laser one at a time.
Experiment [2] concerns the target D43A. Described as above.
Experiment [3] addresses G89A. The experiment is described as above.
Experiment [4] concerns the target I46A. The experiment is described as above.
Experiment [5] deals with N88A. Described as above.
Experiment [6] concerns the target P8A. The description is as above.
Experiment [7] deals with Q41A. The experiment is described as above.
The target in experiment [8] is Q91A. Described as above.
In experiment [9] the target is R37A. The experiment is described as above.
In experiment [10] the target is R93A. The description is as above.
Experiment [11] concerns the target S63A. The description is as above.
Experiment [12] has as its target W13A. The experiment is described as above.
Experiment [13] addresses human CD27 (human) (UniProt P26842). The experiment is described as follows: flow cytometry MFI, CD4+ T cells in human peripheral blood, n=4.
Experiment [14] has the same target. The experiment can be described thus: flow cytometry MFI, CD8+ T cells in human peripheral blood, n=4.

Sequence of 1F5-hIgG1 (antibody) (VH): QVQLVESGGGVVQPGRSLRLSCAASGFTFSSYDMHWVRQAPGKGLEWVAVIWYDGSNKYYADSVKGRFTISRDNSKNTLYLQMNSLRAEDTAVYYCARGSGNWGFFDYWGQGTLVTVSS
Sequence of 1F5-hIgG1 (antibody) (VL): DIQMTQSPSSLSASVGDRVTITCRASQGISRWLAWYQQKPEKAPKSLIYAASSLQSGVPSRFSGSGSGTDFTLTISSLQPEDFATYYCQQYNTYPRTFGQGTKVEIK
Sequence of W13A (receptor chain, as listed by the source W13A W13A limits assumed): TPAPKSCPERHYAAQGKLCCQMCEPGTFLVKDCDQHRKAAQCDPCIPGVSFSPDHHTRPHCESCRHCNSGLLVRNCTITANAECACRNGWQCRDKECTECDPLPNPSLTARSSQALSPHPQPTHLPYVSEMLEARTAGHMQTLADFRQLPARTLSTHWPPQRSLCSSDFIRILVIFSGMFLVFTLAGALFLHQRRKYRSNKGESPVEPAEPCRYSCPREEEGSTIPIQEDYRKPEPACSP
Sequence of R93A (receptor chain, as listed by the source R93A R93A limits assumed): as the sequence (receptor chain, as listed by the source W13A W13A limits assumed) above, with A13W, R93A counted along it
Sequence of D43A (receptor chain, as listed by the source D43A D43A limits assumed): as the sequence (receptor chain, as listed by the source W13A W13A limits assumed) above, with A13W, D43A counted along it
Sequence of Q91A (receptor chain, as listed by the source Q91A Q91A limits assumed): as the sequence (receptor chain, as listed by the source W13A W13A limits assumed) above, with A13W, Q91A counted along it
Sequence of P8A (receptor chain, as listed by the source limits assumed): as the sequence (receptor chain, as listed by the source W13A W13A limits assumed) above, with P8A, A13W counted along it
Sequence of G89A (receptor chain, as listed by the source G89A G89A limits assumed): as the sequence (receptor chain, as listed by the source W13A W13A limits assumed) above, with A13W, G89A counted along it
Sequence of S63A (receptor chain, as listed by the source S63A S63A limits assumed): as the sequence (receptor chain, as listed by the source W13A W13A limits assumed) above, with A13W, S63A counted along it
Sequence of D32A (receptor chain, as listed by the source D32A D32A limits assumed): as the sequence (receptor chain, as listed by the source W13A W13A limits assumed) above, with A13W, D32A counted along it
Sequence of I46A (receptor chain, as listed by the source I46A I46A limits assumed): as the sequence (receptor chain, as listed by the source W13A W13A limits assumed) above, with A13W, I46A counted along it
Sequence of N88A (receptor chain, as listed by the source N88A N88A limits assumed): as the sequence (receptor chain, as listed by the source W13A W13A limits assumed) above, with A13W, N88A counted along it
Sequence of Q41A (receptor chain, as listed by the source Q41A Q41A limits assumed): as the sequence (receptor chain, as listed by the source W13A W13A limits assumed) above, with A13W, Q41A counted along it
Sequence of R37A (receptor chain, as listed by the source R37A R37A limits assumed): as the sequence (receptor chain, as listed by the source W13A W13A limits assumed) above, with A13W, R37A counted along it

The EC50 is the concentration that produces a half-maximal response. Low values mean an effect from little substance, high ones a need for much substance. As to 1F5-hIgG1 (antibody), the binding, WT hCD27 = 100 (GM FITC) was found to be 115% in [1]; 202% in [2]; 103% in experiment [3]; 128% in [4]; 153% in experiment [5]; 82.5% in [6]. The binding, WT hCD27 = 100 (GM FITC) in experiment [7] is 104%; in experiment [8] it was 156%; in experiment [9] it was 109%; in experiment [10], 120%; in experiment [11], 144%; in experiment [12] it was 89.5%. Further, the EC50 is 1.54 nM in experiment [13] and 1.3 nM in experiment [14].
